The text below walks through data of US20020192704A1.

This assay addresses IRR-Fc fusion protein (extracellular region of mouse insulin receptor-related receptor, 1-920th residues, fused to the H-chain C (constant) region (Fc region) of human IgG1) (mouse; human) (UniProt Q9WTL4). Kind of assay: SPR (BIACORE 2000), IRR-Fc immobilised on a CM5 chip, IR-Fc flow cell subtracted; about 10 ug of specimen in 200 ul of buffer. In general terms: SPR reads the build-up and loss of mass on a sensor chip optically.

Chain of IRR-Fc fusion protein (extracellular region of mouse insulin receptor-related receptor, 1-920th residues, fused to the H-chain C (constant) region (Fc region) of human IgG1) (mouse; human) (Q9WTL4 27-920 limits assumed, form in doubt): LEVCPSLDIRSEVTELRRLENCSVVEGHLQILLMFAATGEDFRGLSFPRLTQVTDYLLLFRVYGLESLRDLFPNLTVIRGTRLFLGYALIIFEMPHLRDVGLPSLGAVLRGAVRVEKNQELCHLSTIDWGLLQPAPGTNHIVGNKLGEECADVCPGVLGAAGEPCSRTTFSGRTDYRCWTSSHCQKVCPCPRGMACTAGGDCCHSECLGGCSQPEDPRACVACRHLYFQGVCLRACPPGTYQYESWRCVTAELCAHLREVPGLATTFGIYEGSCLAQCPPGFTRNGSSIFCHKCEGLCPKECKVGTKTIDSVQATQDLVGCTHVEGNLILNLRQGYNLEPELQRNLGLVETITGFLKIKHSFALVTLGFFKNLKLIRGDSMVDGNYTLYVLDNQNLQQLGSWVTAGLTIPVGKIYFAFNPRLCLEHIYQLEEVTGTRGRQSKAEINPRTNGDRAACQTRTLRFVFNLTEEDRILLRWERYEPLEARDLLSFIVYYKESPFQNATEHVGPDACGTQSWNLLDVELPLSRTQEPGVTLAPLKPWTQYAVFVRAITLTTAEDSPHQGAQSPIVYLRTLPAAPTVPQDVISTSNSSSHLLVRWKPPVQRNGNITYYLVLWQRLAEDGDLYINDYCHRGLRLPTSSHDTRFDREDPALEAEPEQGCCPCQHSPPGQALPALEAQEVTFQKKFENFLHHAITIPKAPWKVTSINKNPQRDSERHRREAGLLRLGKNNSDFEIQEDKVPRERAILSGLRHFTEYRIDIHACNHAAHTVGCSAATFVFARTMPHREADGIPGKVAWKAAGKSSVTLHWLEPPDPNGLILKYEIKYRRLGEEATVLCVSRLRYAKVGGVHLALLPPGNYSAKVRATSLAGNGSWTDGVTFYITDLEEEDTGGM

Substance “Peak 1 of the re-purified IRR ligand from rat C6 glioma cell culture supernatant (rat epithelin/granulin precursor fragments, SEQ ID NOS: 5 and 6) (from UniProt P23785 438-494)” registered a binding activity (RU; IRR-Fc binding value minus IR-Fc binding value) of 13 RU.

Turning to “Peak 2 of the re-purified IRR ligand from rat C6 glioma cell culture supernatant (rat epithelin/granulin precursor fragment, SEQ ID NO: 4) (from UniProt P23785 439-494)”, the binding activity (RU; IRR-Fc binding value minus IR-Fc binding value) was determined as 21 RU.
